In publication PMC4454452 (The Biochemical journal, 2014):

Target: CHD4 PHD2 finger (15N-labelled, GST tag cleaved) (uniformly 15N-labelled)
Test: NMR titration

- Kd: 18 µM
Binder: ARTKQTARKSTG [unmodified histone H3 peptide (amino acids 1-12 of histone H3), NMR experiments]
